For one molecule, response (PLA dots/Nuclei) results are on record in article PMC10896785.

This test concerns the target heat shock protein 90 (Hsp90), endogenous mouse, P07901. Kind of test: in situ proximity-ligation assay (PLA). The settings on record: chain shown with the change; primary mouse embryonic fibroblasts (MEFs); anti-FKBP51 and anti-Hsp90 antibodies; parent: est. 240; read off a plot.

B1: FK506-binding protein 51 kDa (FKBP51), wild-type mouse, Q64378 K352A; R356A (protein)
chain: MTTDEGTSNNGENPAATMTEQGEDITTKKDRGVLKIVKRVGTSDEAPMFGDKVYVHYKGMLSDGKKFDSSHDRKKPFAFSLGQGQVIKAWDIGVSTMKKGEICHLLCKPEYAYGSAGHLQKIPSNATLFFEIELLDFKGEDLFEDSGVIRRIKRKGEGYSNPNEGATVKVHLEGCCGGRTFDCRDVVFVVGEGEDHDIPIGIDKALVKMQREEQCILYLGPRYGFGEAGKPKFGIDPNAELMYEVTLKSFEKAKESWEMDTKEKLTQAAIVKEKGTVYFKGGKYTQAVIQYRKIVSWLEMEYGLSEKESKASESFLLAAFLNLAMCYLKLREYNKAVECCDKALGLDSANEAGLYARGEAQLLMNDFESAKGDFEKVLAVNPQNRAARLQISMCQRKAKEHNERDRRVYANMFKKFAERDAKEEASKAGSKKAVEGAAGKQHESQAMEEGKAKGHV
Take B1: the response (PLA dots/Nuclei) was 73.
